Columns and labels:
[1] = target: Sab:KIM1/2 L-A (MAPK/JNK-binding deficient mutant of Sab, pLOC:Sab:KIM1/2 L-A) (UniProt O60239); experiment: cell-based or functional assay
[2] = target: Src homology 3 domain binding protein 5 (SH3BP5 or SAB), ectopically expressed from pLOC:Sab (UniProt O60239); experiment: cell-based or functional assay
Chain of Src homology 3 domain binding protein 5 (SH3BP5 or SAB), ectopically expressed from pLOC:Sab (O60239 whole entry): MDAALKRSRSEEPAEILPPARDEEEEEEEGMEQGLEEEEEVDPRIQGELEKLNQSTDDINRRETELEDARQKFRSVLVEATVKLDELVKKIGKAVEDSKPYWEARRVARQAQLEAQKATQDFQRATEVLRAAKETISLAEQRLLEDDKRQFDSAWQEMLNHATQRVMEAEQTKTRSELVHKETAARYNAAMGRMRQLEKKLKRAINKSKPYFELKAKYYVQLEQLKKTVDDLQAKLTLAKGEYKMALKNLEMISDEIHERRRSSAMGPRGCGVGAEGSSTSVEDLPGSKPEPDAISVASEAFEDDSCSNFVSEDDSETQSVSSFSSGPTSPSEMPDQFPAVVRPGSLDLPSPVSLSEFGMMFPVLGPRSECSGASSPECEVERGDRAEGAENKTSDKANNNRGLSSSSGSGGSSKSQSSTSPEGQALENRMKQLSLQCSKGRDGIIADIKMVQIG

Chain of Sab:KIM1/2 L-A (MAPK/JNK-binding deficient mutant of Sab, pLOC:Sab:KIM1/2 L-A) (O60239 other isoform, or with tags, fused parts or gaps mutant limits assumed): as the sequence (O60239 whole entry) above, with L347A, L349A, L434A, L436A counted along it

Cisplatin IC50 (nM), HeLa cells with ectopic expression, TO-PRO-3 staining [1]: 3.1 nM
Paclitaxel IC50 (µM), HeLa cells with ectopic expression, TO-PRO-3 staining [1]: 13.8 µM
Cisplatin IC50 (nM), HeLa cells with ectopic expression, TO-PRO-3 staining [2]: 0.42 nM
Paclitaxel IC50 (µM), HeLa cells with ectopic expression, TO-PRO-3 staining [2]: 4.7 µM
fold decrease in the IC50 of paclitaxel in HeLa cells against untreated, mock-transfected or RFP-expressing cells [2]: 5 fold
Substance: c-Jun N-terminal Kinase (JNK) (enzyme)
